Results as given in patent US20230144447A1 (published 2023).

B1: CAR-T22.13 chimeric antigen receptor (anti-CD22 scFv from antibody 16F7, CD8 hinge and transmembrane region, 4-1BB, CD3 zeta), on primary human T cells (other)
chain: EVQLVQSGAEVKKPGESLKISCKGSGYNFTSYWIGWVRQMPGKGLEWMGIIYPGDSDTRYSPSFQGQVTISADKSISTAYLQWSSLKASDTAMYYCATPTYYFGSVAFDIWGQGTMVTVSSGGGGSGGGGSGGGGSEIVLTQSPDFQSVTPKEKVTITCRASQSIGSSLHWYQQKPDQSPKLLIKYASQSFSGVPSRFSGSGSGTDFTLTINSLEAEDAAAYYCHQSSSLPYTFGQGTKLEIKFVPVFLPAKPTTTPAPRPPTPAPTIASQPLSLRPEACRPAAGGAVHTRGLDFACDIYIWAPLAGTCGVLLLSLVITLYCKRGRKKLLYIFKQPFMRPVQTTQEEDGCSCRFPEEEEGGCELRVKFSRSADAPAYQQGQNQLYNELNLGRREEYDVLDKRRGRDPEMGGKPRRKNPQEGLYNELQKDKMAEAYSEIGMKGERRRGKGHDGLYQGLSTATKDTYDALHMQALPPR
notes: CAR on the membrane of lentivirus-transduced T cells; also called CART-CD22.13; CAR22.13
B2: CAR-T22.14 chimeric antigen receptor (anti-CD22 scFv from antibody 4G6, CD8 hinge and transmembrane region, 4-1BB, CD3 zeta), on primary human T cells (other)
chain: QVQLVQSGAEVKKPGSSVKVSCKPSGDTFSNYAISWVRQAPGQGLEWMGRIIPILGMAIYAPKFQGRVTITADKSTNTAFMDLTSLYFEDTAVYYCARAPTYWGSKDYFDYWGQGTLVTVSSGGGGSGGGGSGGGGSAIQLTQSPSSLSASVGDRVTITCRASQDISSGLAWYQQKPGTAPKLLIYDASSLESGVPSRFSGSGSGTDFTLTISSLQPDDFATYYCQQFNSFPYTFGQGTKLEIKFVPVFLPAKPTTTPAPRPPTPAPTIASQPLSLRPEACRPAAGGAVHTRGLDFACDIYIWAPLAGTCGVLLLSLVITLYCKRGRKKLLYIFKQPFMRPVQTTQEEDGCSCRFPEEEEGGCELRVKFSRSADAPAYQQGQNQLYNELNLGRREEYDVLDKRRGRDPEMGGKPRRKNPQEGLYNELQKDKMAEAYSEIGMKGERRRGKGHDGLYQGLSTATKDTYDALHMQALPPR
notes: CAR on the membrane of lentivirus-transduced T cells; also called CART-CD22.14; CAR22.14

Biological target: T1, recombinant human CD22 protein with Fc segment (staining reagent) (human, UniProt P20273 20-687)
T1 construct: Reagent used for flow cytometry staining of the CAR; also called Fc fragment of a recombinant human CD22 protein; Fc segment of recombinant human CD22 protein; not shown: Fc segment
T1 sequence (looked up): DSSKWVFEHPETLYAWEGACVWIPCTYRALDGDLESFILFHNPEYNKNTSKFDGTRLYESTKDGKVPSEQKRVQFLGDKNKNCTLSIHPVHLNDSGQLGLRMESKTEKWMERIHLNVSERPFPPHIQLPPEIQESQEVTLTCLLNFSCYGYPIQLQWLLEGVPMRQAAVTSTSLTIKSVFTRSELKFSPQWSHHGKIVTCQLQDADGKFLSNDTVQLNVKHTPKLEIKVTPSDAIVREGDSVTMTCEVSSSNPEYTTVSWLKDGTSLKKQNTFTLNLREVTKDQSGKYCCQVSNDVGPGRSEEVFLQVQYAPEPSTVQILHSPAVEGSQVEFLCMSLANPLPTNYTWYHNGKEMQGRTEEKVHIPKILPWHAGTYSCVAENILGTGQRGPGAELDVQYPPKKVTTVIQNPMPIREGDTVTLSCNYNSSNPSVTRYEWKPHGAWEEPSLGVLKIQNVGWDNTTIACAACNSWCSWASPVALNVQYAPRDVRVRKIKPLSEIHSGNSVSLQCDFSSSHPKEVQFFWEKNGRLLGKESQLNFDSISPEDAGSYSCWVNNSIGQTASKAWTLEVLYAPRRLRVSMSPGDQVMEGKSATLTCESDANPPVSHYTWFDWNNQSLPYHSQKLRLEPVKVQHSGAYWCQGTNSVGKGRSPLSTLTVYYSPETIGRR
Test: flow cytometry of CAR-T cells stained with recombinant human CD22-Fc protein, with untransduced T cells as control
Protocol: 0.2×10⁶ of CART-CD22.5, CART-CD22.13 and CART-CD22.14 sample cells cultured to Day 6 in Example 2 (FIG. 2) were taken, and, after staining the Fc segment of recombinant human CD22 protein, the expression level of CAR-CD22 protein on the surface of T cell membranes was analyzed by flow cytometry, with untransduced T cells (NT cells) used as control.

Row | Binder | binding result
1 | B1 | binds
2 | B2 | binds
